# Results reported in paper doi:10.1101/2021.12.08.471876 (bioRxiv, 2021).
# Experiments:
# [1] = target: T1, purified recombinant GRP78 protein (GRP78-His) (human, UniProt P11021 19-654, NT-647 fluorescent label (in the MST only)); assay: MST
# [2] = target: T1, purified recombinant GRP78 protein …; assay: ITC
# T1 sequence (P11021 19-654): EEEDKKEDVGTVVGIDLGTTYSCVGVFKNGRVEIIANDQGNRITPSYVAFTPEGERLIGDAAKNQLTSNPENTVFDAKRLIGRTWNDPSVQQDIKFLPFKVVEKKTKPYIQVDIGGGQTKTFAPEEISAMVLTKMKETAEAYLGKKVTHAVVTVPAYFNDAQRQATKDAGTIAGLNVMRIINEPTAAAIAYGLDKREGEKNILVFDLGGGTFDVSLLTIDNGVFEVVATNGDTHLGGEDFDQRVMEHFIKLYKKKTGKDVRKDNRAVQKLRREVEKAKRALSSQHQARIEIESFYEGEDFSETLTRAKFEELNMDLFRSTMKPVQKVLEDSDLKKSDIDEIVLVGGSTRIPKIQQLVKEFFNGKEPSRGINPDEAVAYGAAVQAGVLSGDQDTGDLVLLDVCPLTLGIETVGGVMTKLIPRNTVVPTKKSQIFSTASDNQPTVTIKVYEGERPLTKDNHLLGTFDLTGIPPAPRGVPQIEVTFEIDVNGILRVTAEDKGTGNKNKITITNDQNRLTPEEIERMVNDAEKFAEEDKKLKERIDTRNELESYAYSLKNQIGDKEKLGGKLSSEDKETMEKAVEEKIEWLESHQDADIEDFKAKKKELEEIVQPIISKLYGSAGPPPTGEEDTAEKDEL
Binder,Kd [1] [nM],Kd [2] [nM]
GST-preS1 truncated protein preS1-p3 (residues 66-119) (domain or fragment) GFTPPHGGLLGWSPQAQGILTTLPAAPPPASTNRQSGRQPTPISPPLRDSHPQA,431,–
GST-preS1 truncated protein preS1-p2 (residues 25-90) (domain or fragment) FPDHQLDPAFGANSNNPDWDFNPNKDHWPEANQVGAGAFGPGFTPPHGGLLGWSPQAQGILTTLPA,1200,–
QGIMQTVPAN [pep59],–,10.6
DPAFGANSL [pep56],–,6.59
